{"source": "patent US20050272077", "proteins": {"B1": {"name": "55 kD JNK2 protein kinase (protein)", "chain": "MSDSKCDSQFYSVQVADSTFTVLKRYQQLKPIGSGAQGIVCAAFDTVLGINVAVKKLSRPFQNQTHAKRAYRELVLLKCVNHKNIISLLNVFTPQKTLEEFQDVYLVMELMDANLCQVIHMELDHERMSYLLYQMLCGIKHLHSAGIIHRDLKPSNIVVKSDCTLKILDFGLARTACTNFMMTPYVVTRYYRAPEVILGMGYKENVDIWSVGCIMGELVKGCVIFQGTDHIDQWNKVIEQLGTPSAEFMKKLQPTVRNYVENRPKYPGIKFEELFPDWIFPSESERDKIKTSQARDLLSKMLVIDPDKRISVDEALRHPYITVWYDPAEAEAPPPQIYDAQLEEREHAIEEWKELIYKEVMDWEERSKNGVVKDQPSDAAVSSNATPSQSSSINDISSMSTEQTLASDTDSSLDASTGPLEGCR"}, "B2": {"name": "GST-MKK4 (protein)", "chain": "MQGKRKALKLNFANPPFKSTARFTLNPNPTGVQNPHIERLRTHSIESSGKLKISPEQHWDFTAEDLKDLGEIGRGAYGSVNKMVHKPSGQIMAVKRIRSTVDEKEQKQLLMDLDVVMRSSDCPYIVQFYGALFREGDCWICMELMSTSFDKFYKYVYSVLDDVIPEEILGKITLATVKALNHLKENLKIIHRDIKPSNILLDRSGNIKLCDFGISGQLVDSIAKTRDAGCRPYMAPERIDPSASRQGYDVRSDVWSLGITLYELATGRFPYPKWNSVFDQLTQVVKGDPPQLSNSEEREFSPSFINFVNLCLTKDESKRPKYKELLKHPFILMYEERAVEVACYVCKILDQMPATPSSPMYVD"}, "B3": {"name": "GST-JNK1 (protein)", "chain": "MSRSKRDNNFYSVEIGDSTFTVLKRYQNLKPIGSGAQGIVCAAYDAILERNVAIKKLSRPFQNQTHAKRAYRELVLMKCVNHKNIIGLLNVFTPQKSLEEFQDVYIVMELMDANLCQVIQMELDHERMSYLLYQMLCGIKHLHSAGIIHRDLKPSNIVVKSDCTLKILDFGLARTAGTSFMMTPYVVTRYYRAPEVILGMGYKENVDLWSVGCIMGEMVCHKILFPGRDYIDQWNKVIEQLGTPCPEFMKKLQPTVRTYVENRPKYAGYSFEKLFPDVLFPADSEHNKLKASQARDLLSKMLVIDASKRISVDEALQHPYINVWYDPSEAEAPPPKIPDKQLDEREHTIEEWKELIYKEVMDLEERTKNGVIRGQPSPLAQVQQ"}, "B4": {"name": "Flag epitope-tagged JNK1 (protein)", "chain": "SRSKRDNNFYSVEIGDSTFTVLKRYQNLKPIGSGAQGIVCAAYDAILERNVAIKKLSRPFQNQTHAKRAYRELVLMKCVNHKNIIGLLNVFTPQKSLEEFQDVYIVMELMDANLCQVIQMELDHERMSYLLYQMLCGIKHLHSAGIIHRDLKPSNIVVKSDCTLKILDFGLARTAGTSFMMTPYVVTRYYRAPEVILGMGYKENVDLWSVGCIMGEMVCHKILFPGRDYIDQWNKVIEQLGTPCPEFMKKLQPTVRTYVENRPKYAGYSFEKLFPDVLFPADSEHNKLKASQARDLLSKMLVIDASKRISVDEALQHPYINVWYDPSEAEAPPPKIPDKQLDEREHTIEEWKELIYKEVMDLEERTKNGVIRGQPSPLAQVQQ"}, "B5": {"name": "MKK6 (protein)", "chain": "MSQSKGKKRNPGLKIPKEAFEQPQTSSTPPRDLDSKACISIGNQNFEVKADDLEPIMELGRGAYGVVEKMRHVPSGQIMAVKRIRATVNSQEQKRLLMDLDISMRTVDCPFTVTFYGALFREGDVWICMELMDTSLDKFYKQVIDKGQTIPEDILGKIAVSIVKALEHLHSKLSVIHRDVKPSNVLINALGQVKMCDFGISGYLVDSVAKTIDAGCKPYMAPERINPELNQKGYSVKSDIWSLGITMIELAILRFPYDSWGTPFQQLKQVVEEPSPQLPADKFSAEFVDFTSQCLKKNSKERPTYPELMQHPFFTLHESKGTDVASFVKLILGD"}}, "key": {"[1]": {"target": "T1, GST-ATF2 fusion protein (residues 1-505), P15336", "T1 chain": "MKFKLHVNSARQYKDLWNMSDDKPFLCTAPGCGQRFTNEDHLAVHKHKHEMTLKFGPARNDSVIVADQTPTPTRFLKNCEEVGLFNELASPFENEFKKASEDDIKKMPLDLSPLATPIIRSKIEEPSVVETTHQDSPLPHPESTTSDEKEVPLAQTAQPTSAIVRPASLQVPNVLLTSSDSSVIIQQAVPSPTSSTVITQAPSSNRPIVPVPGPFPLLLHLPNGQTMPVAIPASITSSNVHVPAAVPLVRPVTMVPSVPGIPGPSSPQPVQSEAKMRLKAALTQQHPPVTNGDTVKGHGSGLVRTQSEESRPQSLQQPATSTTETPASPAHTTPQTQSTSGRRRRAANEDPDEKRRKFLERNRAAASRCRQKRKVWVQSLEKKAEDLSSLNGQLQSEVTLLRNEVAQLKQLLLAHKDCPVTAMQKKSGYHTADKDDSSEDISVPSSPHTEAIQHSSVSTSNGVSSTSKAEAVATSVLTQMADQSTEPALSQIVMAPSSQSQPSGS"}, "[2]": {"target": "GST-p38 MAP kinase (wild-type, TGY), Q16539", "sequence (Q16539 whole entry)": "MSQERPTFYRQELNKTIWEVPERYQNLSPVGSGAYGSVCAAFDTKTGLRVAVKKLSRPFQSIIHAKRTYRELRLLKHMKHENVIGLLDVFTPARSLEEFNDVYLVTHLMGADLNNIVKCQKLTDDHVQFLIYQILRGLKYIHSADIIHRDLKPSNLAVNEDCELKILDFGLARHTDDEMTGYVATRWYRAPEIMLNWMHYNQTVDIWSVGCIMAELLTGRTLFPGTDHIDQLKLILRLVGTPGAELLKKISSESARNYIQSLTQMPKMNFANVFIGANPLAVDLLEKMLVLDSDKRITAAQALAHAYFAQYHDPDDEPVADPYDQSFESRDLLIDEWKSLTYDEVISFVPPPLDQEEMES"}, "[3]": {"target": "mutated GST-JNK1 (Ala^183, Phe^185), P45983"}, "GST-MKK4, P45985": {"target": "T2, GST-MKK4, P45985", "T2 chain": "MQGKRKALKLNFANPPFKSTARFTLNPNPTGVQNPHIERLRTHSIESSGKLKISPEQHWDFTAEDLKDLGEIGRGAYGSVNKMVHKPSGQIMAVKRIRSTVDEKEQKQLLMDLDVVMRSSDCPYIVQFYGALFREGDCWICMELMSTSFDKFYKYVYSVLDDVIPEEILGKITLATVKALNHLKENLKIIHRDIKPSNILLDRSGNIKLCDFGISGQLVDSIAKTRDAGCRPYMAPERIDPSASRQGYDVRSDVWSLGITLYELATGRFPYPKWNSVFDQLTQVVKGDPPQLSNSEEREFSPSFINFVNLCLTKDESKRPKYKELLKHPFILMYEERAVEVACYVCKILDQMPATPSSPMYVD"}, "[4]": {"target": "GST-ATF2 fusion protein (residues 1-109, activation domain) [GST: P08515]"}, "[5]": {"target": "T3, GST-ATF2 fusion protein (residues 1-349), P15336", "T3 chain": "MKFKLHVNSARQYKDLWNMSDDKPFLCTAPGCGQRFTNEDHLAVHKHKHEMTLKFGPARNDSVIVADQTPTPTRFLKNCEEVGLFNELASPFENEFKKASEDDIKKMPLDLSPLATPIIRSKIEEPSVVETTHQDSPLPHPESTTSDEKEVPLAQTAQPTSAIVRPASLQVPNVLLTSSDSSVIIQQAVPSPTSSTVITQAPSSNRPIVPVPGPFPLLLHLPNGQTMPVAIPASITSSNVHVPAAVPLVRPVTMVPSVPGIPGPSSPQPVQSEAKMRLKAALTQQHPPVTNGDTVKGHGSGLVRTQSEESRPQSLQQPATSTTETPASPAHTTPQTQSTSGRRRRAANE"}, "[6]": {"target": "T4, GST-ATF2 fusion protein (residues 20-109), P15336", "T4 chain": "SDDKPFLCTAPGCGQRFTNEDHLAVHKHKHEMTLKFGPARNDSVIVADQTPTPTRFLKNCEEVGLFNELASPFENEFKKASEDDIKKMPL"}, "[7]": {"target": "T5, GST-ATF2 fusion protein (residues 40-109), P15336", "T5 chain": "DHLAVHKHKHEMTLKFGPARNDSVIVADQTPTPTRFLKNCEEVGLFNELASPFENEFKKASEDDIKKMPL"}, "[8]": {"target": "T6, GST-ATF2 fusion protein (residues 60-109), P15336", "T6 chain": "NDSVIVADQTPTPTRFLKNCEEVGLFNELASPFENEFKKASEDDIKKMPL"}}}
{"protein": "B1", "values": [{"measurement": "in-gel protein kinase assay with GST-ATF2 (residues 1-505) polymerized in the gel", "setting": "[1]", "value": "46 kD and 55 kD protein kinases that phosphorylate ATF2 in extracts prepared from UV-irradiated cells. The 46 kD and 55 kD protein kinases were identified as JNK1 and JNK2, respectively"}]}
{"protein": "B2", "values": [{"measurement": "phosphorylation of ATF2 in a coupled kinase assay (activation of JNK1)", "setting": "GST-JNK1, P45983", "value": "ATF2 was phosphorylated in the presence of MKK4 and wild-type JNK1"}, {"measurement": "phosphorylation of the substrate protein (in vitro kinase assay, [γ-32P]ATP)", "setting": "GST-JNK1, P45983", "value": "JNK1 and p38 were phosphorylated"}, {"measurement": "phosphorylation of the substrate protein (in vitro kinase assay, [γ-32P]ATP)", "setting": "[2]", "value": "JNK1 and p38 were phosphorylated"}, {"measurement": "phosphorylation of ATF2 in a coupled kinase assay (activation of JNK1)", "setting": "[3]", "value": "MKK4 incubated with wild-type JNK1, but not mutated JNK1, resulted in increased phosphorylation of ATF2"}]}
{"protein": "B3", "values": [{"measurement": "phosphorylation of MKK4 (in vitro kinase assay, [γ-32P]ATP)", "setting": "GST-MKK4, P45985", "value": "as was MKK4 incubated with JNK1 and p38"}]}
{"protein": "B4", "values": [{"measurement": "phosphorylation of GST-ATF2 (residues 1 to 109) (immunocomplex kinase assay, autoradiography)", "setting": "[4]", "value": "JNK1-transfected cells, but not mock-transfected cells, phosphorylated ATF2. JNK1 phosphorylation of ATF2 was greater in cells exposed to UV radiation"}, {"measurement": "phosphorylation of the GST-ATF2 fusion protein (immunocomplex kinase assay)", "setting": "[4]", "value": "JNK1 phosphorylates GST-ATF2 fusion proteins containing residues 1-505, 1-349, 1-109, 20-109, and 40-109, but not 60-109"}, {"measurement": "phosphorylation of the GST-ATF2 fusion protein (immunocomplex kinase assay)", "setting": "[5]", "value": "JNK1 phosphorylates GST-ATF2 fusion proteins containing residues 1-505, 1-349, 1-109, 20-109, and 40-109, but not 60-109"}, {"measurement": "phosphorylation of the GST-ATF2 fusion protein (immunocomplex kinase assay)", "setting": "[1]", "value": "JNK1 phosphorylates GST-ATF2 fusion proteins containing residues 1-505, 1-349, 1-109, 20-109, and 40-109, but not 60-109"}, {"measurement": "phosphorylation of the GST-ATF2 fusion protein (immunocomplex kinase assay)", "setting": "[6]", "value": "JNK1 phosphorylates GST-ATF2 fusion proteins containing residues 1-505, 1-349, 1-109, 20-109, and 40-109, but not 60-109"}, {"measurement": "phosphorylation of the GST-ATF2 fusion protein (immunocomplex kinase assay)", "setting": "[7]", "value": "JNK1 phosphorylates GST-ATF2 fusion proteins containing residues 1-505, 1-349, 1-109, 20-109, and 40-109, but not 60-109"}, {"measurement": "phosphorylation of the GST-ATF2 fusion protein (immunocomplex kinase assay)", "setting": "[8]", "value": "JNK1 phosphorylates GST-ATF2 fusion proteins containing residues 1-505, 1-349, 1-109, 20-109, and 40-109, but not 60-109"}]}
{"protein": "B5", "values": [{"measurement": "phosphorylation of the substrate protein (in vitro kinase assay)", "setting": "GST-ERK2 [GST: P08515]", "value": "shown to phosphorylate p38 MAP kinase on Thr^180 and Tyr^182, but not JNK1 or ERK2"}, {"measurement": "phosphorylation of the substrate protein (in vitro kinase assay)", "setting": "GST-JNK1, P45983", "value": "shown to phosphorylate p38 MAP kinase on Thr^180 and Tyr^182, but not JNK1 or ERK2"}, {"measurement": "phosphorylation of the substrate protein (in vitro kinase assay)", "setting": "[2]", "value": "shown to phosphorylate p38 MAP kinase on Thr^180 and Tyr^182, but not JNK1 or ERK2"}, {"measurement": "specific activity relative to MKK3", "setting": "[2]", "value": "The specific activity of MKK6 was approximately 300-fold greater than that of MKK3"}]}
